Biological target: T1, 金黄色葡萄球菌肠毒素B (Staphylococcus aureus, UniProt P01552 28-266)
T1 construct: also called SEB
T1 sequence: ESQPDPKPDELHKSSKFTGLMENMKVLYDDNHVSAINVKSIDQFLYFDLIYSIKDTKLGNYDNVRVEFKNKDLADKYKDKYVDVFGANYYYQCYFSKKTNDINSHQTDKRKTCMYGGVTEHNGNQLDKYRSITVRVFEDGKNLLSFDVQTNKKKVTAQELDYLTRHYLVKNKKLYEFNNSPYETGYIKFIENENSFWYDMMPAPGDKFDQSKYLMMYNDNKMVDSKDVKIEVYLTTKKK
Assay: phage ELISA on coated SEB, HRP anti-M13 detection

B1: 噬菌体克隆B7 (VHH)
VHH: ESGGGLVQAGGSLRLSCKVSGFNFREHALAWFRQAPGKEREGVSCIRGSGDYTTYADSVKGRFTISRDNAQNTLYLQMNSLRPEDTAMYYCAAARYARYYPNNCLDSAEYGYWGQGTLVTVS
notes: also called B7克隆
binding result: binds

From CN110526968A (UNIV NORTHWEST A&F, dated 2019)
